Laboratory results taken from patent US10513713B2, “Modified host cells having tolerance to α-olefins” (priority 2014, dated 2019).

System: E. coli K12 ΔacrAB
Test: Survival assay on agar plate in olefin saturated atmosphere, strains producing AcrAB or AcrB variants
Assay type: cell-based
Settings: 1-hexene saturated atmosphere; for tolerance to 1-hexene relative to wild type AcrB sequence: single mutation AcrB variants, FIG. 4A
Experimental: FIG. 2: impact of AcrAB production on growth, in presence of styrene 1-hexene, 1-octene and 1-nonene on cell growth. A: Different concentrations of styrene were added to an OD600=0.2 culture of E. coli K12 ΔacrAB containing the pABc (white) or the control plasmid p0c (black). OD density was monitored after 2 hours of growth at 37° C. The bars represent standard deviation between duplicates. B: A survival test in presence of 1-hexene, 1-octene, or 1-nonene saturated atmosphere was performed. Six different dilutions of cultures (10 cells to 10^7 cells, left to right on the figure) were spotted in triplicate on an agar plates. Plates were then exposed to the aforementioned chemicals.
FIG. 4: Impact of beneficial mutations on AcrB on tolerance to 1-hexene, A: Survival test of E. coli strain producing either the AcrB wild type or variants in a 1-hexene saturated atmosphere was performed. Two dilutions of cultures (Dilution 1: 10^5 cells and Dilution 2: 10^4 cells) were spotted in triplicate on an agar plate. B: Localization of the 6 beneficial mutations represented on the structure of a single monomer of AcrB or C: on the structure of the AcrB trimer.
FIG. 6: Impact of beneficial mutations on AcrB on tolerance to 1-hexene. A: Survival test of E. coli strain producing either the AcrB Wild type or variants with 1, 2 or several beneficial mutations, in an 1-hexene saturated atmosphere was performed. Two dilutions of cultures (Dilution 2: 10^4 cells and Dilution 3: 10^3 cells) were spotted in triplicate on an agar plate. B: Soluble fraction of total proteins from a culture of strains producing either the wild type, either the variant F617L, either the variant 6 (A279T, Q584R, F617L) were analyzed by western blot using anti-His antibody.
For agar plate based assays, cells were first streaked overnight and few colonies were used to inoculate a preculture of 6 mL of LB-Cm with glucose (2 g/L) and arabinose (5 mM). At OD60=1 at 37° C., the cultures were used to prepare a dilution series. Dilution 0 (D0) corresponds to the OD600, =1, and contains ˜10^9 cells/mL. Dilution 1 (D1) is a 10-fold dilution of D0, dilution 2 (D2) a 10-fold dilution of D1 up to dilution 5 (D5), which contains ˜10^4 cells/mL. 10 μL of each dilution was spotted in triplicate on LB-agar plates (single well plates, Thermo Scientific, Waltham, Mass.) containing 30 mL of LB-agar, Cm (30 mg/L), glucose (2 g/L) and arabinose (5 mM). Small containers (microfuge tube lids) were placed on the open lid of the agar plate and filled with 400 to 600 μL of 1-hexene or 1-octene or with 75 μL of 1-nonene. The agar plates were then inverted over the lid, cells facing the olefin compound, sealed with parafilm, placed in the plastic bag (the original packaging for the petri dishes) and incubated for 2 days at room temperature. For 1-octene, a second condition, via overlaying 2 mL of compound on the top of the agar submerging the cells, was used. TolC overexpression impact was examined using the same method, but in this case, the LB media and the LB-agar were also supplemented with ampicillin (100 mg/L) and IPTG (100 μM). […]

B1: A279T: E. coli AcrB (SEQ ID NO:1) variant with amino acid mutation A279T (protein)
chain: MPNFFIDRPIFAWVIAIIIMLAGGLAILKLPVAQYPTIAPPAVTISASYPGADAKTVQDTVTQVIEQNMNGIDNLMYMSSNSDSTGTVQITLTFESGTDADIAQVQVQNKLQLAMPLLPQEVQQQGVSVEKSSSSFLMVVGVINTDGTMTQEDISDYVAANMKDAISRTSGVGDVQLFGSQYAMRIWMNPNELNKFQLTPVDVITAIKAQNAQVAAGQLGGTPPVKGQQLNASIIAQTRLTSTEEFGKILLKVNQDGSRVLLRDVAKIELGGENYDIITEFNGQPASGLGIKLATGANALDTAAAIRAELAKMEPFFPSGLKIVYPYDTTPFVKISIHEVVKTLVEAIILVFLVMYLFLQNFRATLIPTIAVPVVLLGTFAVLAAFGFSINTLTMFGMVLAIGLLVDDAIVVVENVERVMAEEGLPPKEATRKSMGQIQGALVGIAMVLSAVFVPMAFFGGSTGAIYRQFSITIVSAMALSVLVALILTPALCATMLKPIAKGDHGEGKKGFFGWFNRMFEKSTHHYTDSVGGILRSTGRYLVLYLIIVVGMAYLFVRLPSSFLPDEDQGVFMTMVQLPAGATQERTQKVLNEVTHYYLTKEKNNVESVFAVNGFGFAGRGQNTGIAFVSLKDWADRPGEENKVEAITMRATRAFSQIKDAMVFAFNLPAIVELGTATGFDFELIDQAGLGHEKLTQARNQLLAEAAKHPDMLTSVRPNGLEDTPQFKIDIDQEKAQALGVSINDINTTLGAAWGGSYVNDFIDRGRVKKVYVMSEAKYRMLPDDIGDWYVRAADGQMVPFSAFSSSRWEYGSPRLERYNGLPSMEILGQAAPGKSTGEAMELMEQLASKLPTGVGYDWTGMSYQERLSGNQAPSLYAISLIVVFLCLAALYESWSIPFSVMLVVPLGVIGALLAATFRGLTNDVYFQVGLLTTIGLSAKNAILIVEFAKDLMDKEGKGLIEATLDAVRMRLRPILMTSLAFILGVMPLVISTGAGSGAQNAVGTGVMGGMVTATVLAIFFVPVFFVVVRRRFSRKNEDIEHSHTVDHH
modifications: E. coli
Which results are given for B1?
efficiency among the beneficial mutations: more efficient; tolerance to 1-hexene relative to wild type AcrB sequence: improvement in tolerance

B2: L822P: E. coli AcrB (SEQ ID NO:1) variant with amino acid mutation L822P (protein)
chain: MPNFFIDRPIFAWVIAIIIMLAGGLAILKLPVAQYPTIAPPAVTISASYPGADAKTVQDTVTQVIEQNMNGIDNLMYMSSNSDSTGTVQITLTFESGTDADIAQVQVQNKLQLAMPLLPQEVQQQGVSVEKSSSSFLMVVGVINTDGTMTQEDISDYVAANMKDAISRTSGVGDVQLFGSQYAMRIWMNPNELNKFQLTPVDVITAIKAQNAQVAAGQLGGTPPVKGQQLNASIIAQTRLTSTEEFGKILLKVNQDGSRVLLRDVAKIELGGENYDIIAEFNGQPASGLGIKLATGANALDTAAAIRAELAKMEPFFPSGLKIVYPYDTTPFVKISIHEVVKTLVEAIILVFLVMYLFLQNFRATLIPTIAVPVVLLGTFAVLAAFGFSINTLTMFGMVLAIGLLVDDAIVVVENVERVMAEEGLPPKEATRKSMGQIQGALVGIAMVLSAVFVPMAFFGGSTGAIYRQFSITIVSAMALSVLVALILTPALCATMLKPIAKGDHGEGKKGFFGWFNRMFEKSTHHYTDSVGGILRSTGRYLVLYLIIVVGMAYLFVRLPSSFLPDEDQGVFMTMVQLPAGATQERTQKVLNEVTHYYLTKEKNNVESVFAVNGFGFAGRGQNTGIAFVSLKDWADRPGEENKVEAITMRATRAFSQIKDAMVFAFNLPAIVELGTATGFDFELIDQAGLGHEKLTQARNQLLAEAAKHPDMLTSVRPNGLEDTPQFKIDIDQEKAQALGVSINDINTTLGAAWGGSYVNDFIDRGRVKKVYVMSEAKYRMLPDDIGDWYVRAADGQMVPFSAFSSSRWEYGSPRLERYNGPPSMEILGQAAPGKSTGEAMELMEQLASKLPTGVGYDWTGMSYQERLSGNQAPSLYAISLIVVFLCLAALYESWSIPFSVMLVVPLGVIGALLAATFRGLTNDVYFQVGLLTTIGLSAKNAILIVEFAKDLMDKEGKGLIEATLDAVRMRLRPILMTSLAFILGVMPLVISTGAGSGAQNAVGTGVMGGMVTATVLAIFFVPVFFVVVRRRFSRKNEDIEHSHTVDHH
modifications: E. coli
B2 was tested. Which “efficiency among the beneficial mutations” value did it give?
The value was “more efficient”.

What about the “tolerance to 1-hexene relative to wild type AcrB sequence” value of the same molecule?
The value was “improvement in tolerance”.

B3: F617L: E. coli AcrB (SEQ ID NO:1) variant with amino acid mutation F617L (protein)
chain: MPNFFIDRPIFAWVIAIIIMLAGGLAILKLPVAQYPTIAPPAVTISASYPGADAKTVQDTVTQVIEQNMNGIDNLMYMSSNSDSTGTVQITLTFESGTDADIAQVQVQNKLQLAMPLLPQEVQQQGVSVEKSSSSFLMVVGVINTDGTMTQEDISDYVAANMKDAISRTSGVGDVQLFGSQYAMRIWMNPNELNKFQLTPVDVITAIKAQNAQVAAGQLGGTPPVKGQQLNASIIAQTRLTSTEEFGKILLKVNQDGSRVLLRDVAKIELGGENYDIIAEFNGQPASGLGIKLATGANALDTAAAIRAELAKMEPFFPSGLKIVYPYDTTPFVKISIHEVVKTLVEAIILVFLVMYLFLQNFRATLIPTIAVPVVLLGTFAVLAAFGFSINTLTMFGMVLAIGLLVDDAIVVVENVERVMAEEGLPPKEATRKSMGQIQGALVGIAMVLSAVFVPMAFFGGSTGAIYRQFSITIVSAMALSVLVALILTPALCATMLKPIAKGDHGEGKKGFFGWFNRMFEKSTHHYTDSVGGILRSTGRYLVLYLIIVVGMAYLFVRLPSSFLPDEDQGVFMTMVQLPAGATQERTQKVLNEVTHYYLTKEKNNVESVFAVNGFGLAGRGQNTGIAFVSLKDWADRPGEENKVEAITMRATRAFSQIKDAMVFAFNLPAIVELGTATGFDFELIDQAGLGHEKLTQARNQLLAEAAKHPDMLTSVRPNGLEDTPQFKIDIDQEKAQALGVSINDINTTLGAAWGGSYVNDFIDRGRVKKVYVMSEAKYRMLPDDIGDWYVRAADGQMVPFSAFSSSRWEYGSPRLERYNGLPSMEILGQAAPGKSTGEAMELMEQLASKLPTGVGYDWTGMSYQERLSGNQAPSLYAISLIVVFLCLAALYESWSIPFSVMLVVPLGVIGALLAATFRGLTNDVYFQVGLLTTIGLSAKNAILIVEFAKDLMDKEGKGLIEATLDAVRMRLRPILMTSLAFILGVMPLVISTGAGSGAQNAVGTGVMGGMVTATVLAIFFVPVFFVVVRRRFSRKNEDIEHSHTVDHH
modifications: E. coli
How did the “efficiency among the beneficial mutations” value turn out when B3 was run?
Its value is “more efficient”.

And the “tolerance to 1-hexene relative to wild type AcrB sequence” value?
The value was “improvement in tolerance”.

B4: F927S: E. coli AcrB (SEQ ID NO:1) variant with amino acid mutation F927S (protein)
chain: MPNFFIDRPIFAWVIAIIIMLAGGLAILKLPVAQYPTIAPPAVTISASYPGADAKTVQDTVTQVIEQNMNGIDNLMYMSSNSDSTGTVQITLTFESGTDADIAQVQVQNKLQLAMPLLPQEVQQQGVSVEKSSSSFLMVVGVINTDGTMTQEDISDYVAANMKDAISRTSGVGDVQLFGSQYAMRIWMNPNELNKFQLTPVDVITAIKAQNAQVAAGQLGGTPPVKGQQLNASIIAQTRLTSTEEFGKILLKVNQDGSRVLLRDVAKIELGGENYDIIAEFNGQPASGLGIKLATGANALDTAAAIRAELAKMEPFFPSGLKIVYPYDTTPFVKISIHEVVKTLVEAIILVFLVMYLFLQNFRATLIPTIAVPVVLLGTFAVLAAFGFSINTLTMFGMVLAIGLLVDDAIVVVENVERVMAEEGLPPKEATRKSMGQIQGALVGIAMVLSAVFVPMAFFGGSTGAIYRQFSITIVSAMALSVLVALILTPALCATMLKPIAKGDHGEGKKGFFGWFNRMFEKSTHHYTDSVGGILRSTGRYLVLYLIIVVGMAYLFVRLPSSFLPDEDQGVFMTMVQLPAGATQERTQKVLNEVTHYYLTKEKNNVESVFAVNGFGFAGRGQNTGIAFVSLKDWADRPGEENKVEAITMRATRAFSQIKDAMVFAFNLPAIVELGTATGFDFELIDQAGLGHEKLTQARNQLLAEAAKHPDMLTSVRPNGLEDTPQFKIDIDQEKAQALGVSINDINTTLGAAWGGSYVNDFIDRGRVKKVYVMSEAKYRMLPDDIGDWYVRAADGQMVPFSAFSSSRWEYGSPRLERYNGLPSMEILGQAAPGKSTGEAMELMEQLASKLPTGVGYDWTGMSYQERLSGNQAPSLYAISLIVVFLCLAALYESWSIPFSVMLVVPLGVIGALLAATFRGLTNDVYSQVGLLTTIGLSAKNAILIVEFAKDLMDKEGKGLIEATLDAVRMRLRPILMTSLAFILGVMPLVISTGAGSGAQNAVGTGVMGGMVTATVLAIFFVPVFFVVVRRRFSRKNEDIEHSHTVDHH
modifications: E. coli
Which “tolerance to 1-hexene relative to wild type AcrB sequence” value does the source give for B4 here?
Its value is “improvement in tolerance”.
